Experiment [1] has as its target T1, soluble HLA-E-RL9HIV complex (Homo sapiens).
T1 construct: C-trap-stabilized in the ELISA, biotinylated in the SPR; control antigen; also called C-trap-stabilized HLA-E-RL9HIV
Kind of experiment: sandwich ELISA: plate coated with the antibody in serial dilution, C-trap-stabilized HLA-E-RL9HIV added, detection with HRP anti-human β2M [panel C].

Experiment [2] concerns the target T2, HLA-E-RL9SIV single chain trimer on transfected 293T cells (human, UniProt P61769 21-119; P13747 22-358).
T2 construct: also called control HLA-E-peptide complex
Kind of experiment: flow cytometry on SCT-transfected 293T cells. A general note: A flow cytometer gives signals particle by particle.

Experiment [3] addresses T3, soluble HLA-E-VL9 complex (HLA-E*01:03 heavy chain, beta2-microglobulin, VL9 peptide …) (human).
T3 construct: also called VL9 peptide-loaded HLA-E
Kind of experiment: SPR, antibody on CM5 chip, soluble HLA-E-VL9 flowed over, 1:1 model; IgM 3H4. A general note: In SPR one partner is held on a chip, and binding of the other changes the refractive index at the surface.

Experiment [4] has as its target HLA-E on K562-E cells loaded with microbiome-derived peptide […] (Stenotrophomonas sp.) (human, UniProt P13747 22-358; P61769 21-119). In words: flow cytometry on peptide-loaded K562-E cells, antibody 10 µg/ml.
In experiment [5] the target is HLA-E on K562-E cells loaded with microbiome-derived peptide […] (Pseudomonas formosensis) (human, UniProt P13747 22-358; P61769 21-119). Described as above.
Experiment [6] concerns the target HLA-E on K562-E cells loaded with microbiome-derived peptide […] (Escherichia coli MS 175-1) (human, UniProt P13747 22-358; P61769 21-119). The description is as above.
Experiment [7] has as its target T4, soluble HLA-E-RL9SIV complex (Homo sapiens).
T4 construct: C-trap-stabilized in the ELISA, biotinylated in the SPR; control antigen; also called C-trap-stabilized HLA-E-RL9SIV
In words: sandwich ELISA: plate coated with the antibody in serial dilution, C-trap-stabilized HLA-E-RL9SIV added, detection with HRP anti-human β2M [panel C]. On the technique in general: ELISA stands for enzyme-linked immunosorbent assay.

Experiment [8] addresses T3, soluble HLA-E-VL9 complex (HLA-E*01:03 …). Kind of experiment: SPR, antibody on CM5 chip, soluble HLA-E-VL9 flowed over, 1:1 model; human IgG1 backbone 3H4.
The target of a further experiment is T5, Jo-1 antigen (UniProt P12081 2-509).
T5 sequence (looked up): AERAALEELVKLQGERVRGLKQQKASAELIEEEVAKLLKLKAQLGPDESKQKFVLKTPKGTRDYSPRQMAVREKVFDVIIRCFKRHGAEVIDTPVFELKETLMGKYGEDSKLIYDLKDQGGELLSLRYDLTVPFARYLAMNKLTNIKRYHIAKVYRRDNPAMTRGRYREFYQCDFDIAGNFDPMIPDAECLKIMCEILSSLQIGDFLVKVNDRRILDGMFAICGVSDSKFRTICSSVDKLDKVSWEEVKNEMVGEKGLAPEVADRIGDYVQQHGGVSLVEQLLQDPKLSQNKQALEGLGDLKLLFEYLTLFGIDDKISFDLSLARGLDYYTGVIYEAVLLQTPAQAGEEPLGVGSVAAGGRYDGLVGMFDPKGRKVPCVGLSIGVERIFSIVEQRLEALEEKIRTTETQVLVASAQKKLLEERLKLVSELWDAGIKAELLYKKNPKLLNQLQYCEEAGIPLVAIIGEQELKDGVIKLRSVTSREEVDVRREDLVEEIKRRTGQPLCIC
In words: AtheNA autoantigen assay [panel H].

The target of another experiment is T6, scleroderma 70 (Scl-70) (UniProt P11387 2-765).
T6 sequence (looked up): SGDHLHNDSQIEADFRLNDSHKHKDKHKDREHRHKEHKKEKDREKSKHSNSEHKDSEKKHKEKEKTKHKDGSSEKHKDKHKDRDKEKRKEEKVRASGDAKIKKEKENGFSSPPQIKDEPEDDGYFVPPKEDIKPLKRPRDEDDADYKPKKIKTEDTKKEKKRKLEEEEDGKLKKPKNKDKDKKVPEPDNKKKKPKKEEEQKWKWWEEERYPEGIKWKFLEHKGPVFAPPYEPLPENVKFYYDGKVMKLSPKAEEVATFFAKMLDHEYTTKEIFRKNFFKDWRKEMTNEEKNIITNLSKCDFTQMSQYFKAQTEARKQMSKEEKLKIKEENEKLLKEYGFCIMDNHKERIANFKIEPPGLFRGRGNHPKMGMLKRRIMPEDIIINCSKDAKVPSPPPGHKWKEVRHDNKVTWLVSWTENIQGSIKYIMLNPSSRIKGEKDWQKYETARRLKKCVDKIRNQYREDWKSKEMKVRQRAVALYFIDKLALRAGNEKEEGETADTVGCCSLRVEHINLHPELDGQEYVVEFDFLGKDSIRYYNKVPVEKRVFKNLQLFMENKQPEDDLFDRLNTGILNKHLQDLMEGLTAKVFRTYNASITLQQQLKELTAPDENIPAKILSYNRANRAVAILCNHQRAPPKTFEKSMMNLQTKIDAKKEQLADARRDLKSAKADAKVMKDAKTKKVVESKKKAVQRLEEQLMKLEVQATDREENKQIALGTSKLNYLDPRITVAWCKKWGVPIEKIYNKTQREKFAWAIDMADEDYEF
In words: AtheNA autoantigen assay [panel H].

The target of another experiment is T7, centromere B (Cent B) (UniProt P07199 1-599).
T7 sequence (looked up): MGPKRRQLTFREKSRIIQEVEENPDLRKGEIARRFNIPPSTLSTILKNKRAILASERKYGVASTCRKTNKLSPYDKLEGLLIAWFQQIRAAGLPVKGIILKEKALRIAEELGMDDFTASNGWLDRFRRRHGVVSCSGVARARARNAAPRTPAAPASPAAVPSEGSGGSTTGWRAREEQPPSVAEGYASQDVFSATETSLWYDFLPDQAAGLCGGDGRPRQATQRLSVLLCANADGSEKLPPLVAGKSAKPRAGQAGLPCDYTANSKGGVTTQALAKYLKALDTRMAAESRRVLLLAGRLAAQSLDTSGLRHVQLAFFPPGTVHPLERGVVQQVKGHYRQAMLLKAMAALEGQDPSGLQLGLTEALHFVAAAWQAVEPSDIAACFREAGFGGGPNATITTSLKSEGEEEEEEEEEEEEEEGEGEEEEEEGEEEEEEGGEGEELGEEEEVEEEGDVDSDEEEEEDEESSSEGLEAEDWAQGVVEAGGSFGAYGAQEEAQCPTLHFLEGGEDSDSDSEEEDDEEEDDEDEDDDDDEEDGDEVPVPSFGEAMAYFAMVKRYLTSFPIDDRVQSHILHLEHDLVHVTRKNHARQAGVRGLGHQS
Kind of experiment: AtheNA autoantigen assay [panel H].

Experiment [9] concerns the target T8, Sjogren's syndrome antigen (SSB) (UniProt P05455 1-408).
T8 sequence (looked up): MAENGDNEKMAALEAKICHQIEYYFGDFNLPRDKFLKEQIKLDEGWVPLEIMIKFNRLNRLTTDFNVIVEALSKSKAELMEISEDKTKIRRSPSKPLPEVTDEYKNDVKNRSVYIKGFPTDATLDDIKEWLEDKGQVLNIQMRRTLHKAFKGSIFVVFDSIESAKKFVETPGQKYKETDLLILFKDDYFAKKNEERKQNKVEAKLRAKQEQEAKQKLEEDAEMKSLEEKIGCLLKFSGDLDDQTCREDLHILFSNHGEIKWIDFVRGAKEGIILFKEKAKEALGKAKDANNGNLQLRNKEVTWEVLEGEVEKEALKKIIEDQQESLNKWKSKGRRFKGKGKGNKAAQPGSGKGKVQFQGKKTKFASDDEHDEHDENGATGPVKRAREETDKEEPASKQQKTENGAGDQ
Kind of experiment: AtheNA autoantigen assay [panel H].

For experiment [10], the target named is T3, soluble HLA-E-VL9 complex (HLA-E*01:03 …). Kind of experiment: SPR, antibody (human IgG1) on CM5 chip, soluble HLA-E-VL9 flowed over; CA123 on a human IgG1 backbone.
Experiment [11] concerns the target T2, HLA-E-RL9SIV single chain trimer on …. Kind of experiment: flow cytometry, SCT-transfected 293T cells, MFI bar chart [E].
In experiment [12] the target is T9, HLA-E-RL9HIV single chain trimer on transfected 293T cells (human, UniProt P61769 21-119; P13747 22-358).
T9 construct: also called control HLA-E-peptide complex
Described as above.

In experiment [13] the target is T3, soluble HLA-E-VL9 complex (HLA-E*01:03 …).

Results on three molecules are retold here after US20250051454A1 (DUKE UNIVERSITY, published 2025).

B1: 3H4 (mouse IgM monoclonal antibody) (antibody, V domains shown)
VH: EVQLQESGPELVKPGASVKIPCKASGYTFTDYNMDWVKQSHGKSLEWIGDINPNNGGTIYNQKFKGKATLTVDKSSSTAYMELRSLTSEDTAVYYCARPDYYGSSYGWYFDVWGTGTTVTVSS
VL: DIVITQSPSSMYASLGERVTITCKASQDINSYLSWFQQKPGKSPKTLIYRANRLVDGVPSRFSGSGSGQDYSLTISSLEYEDMGIYYCLQYDEFPLTFGAGTKLELK
notes: also called mAb 3H4; IgM 3H4
As for B1, the binding result in experiment [1] is “no binding”; in experiment [2] it was “no binding”; in [4], “binds”; in [5], “binds”; in [6], “binds”; in experiment [7] it was “no binding”. The dissociation constant (Kd) (usually the constant that tells how readily two partners part at equilibrium) in experiment [3] is 8.1 µM.

B2: 3H4 on a human IgG1 backbone (3H4 Gwt) (antibody, V domains shown)
VH: B1 VH
VL: B1 VL
notes: also called 3H4 IgG; wild-type 3H4 IgG
Take B2: in experiment [8], the Kd stood at 49.8 µM. Besides, the binding result (with Jo-1 antigen; in the experiment with scleroderma 70 (Scl-70); with centromere B (Cent B); in [9]) was “no binding” in each case.

B3: CA123 (human antibody on a human IgG1 backbone) (antibody, V domains shown)
VH: EVQLVESGGGLVQPGGSLRLSCAASGFTFSSYWMHWVRQAPGKGLVWVSRINSDGSSTSYADSVKGRFTISRDNAKNTLYLQMNSLRAEDTAVYYCARDQGSTSCYYCYYGMDVWGQGTTVTVSS
VL: not shown
notes: also called CA123 IgG
In the case of B3, in experiment [10], the Kd was determined as 3.8 µM. Besides, the binding result in experiment [11] is given as “no binding (tested: 2 µg/ml)”. Moreover, the binding result in experiment [12] is on record as “no binding (tested: 2 µg/ml)”. Further, in [13], the koff (usually the rate constant with which the complex falls apart) worked out at 0.794 s⁻¹ and the kon (as a rule, the rate constant with which the complex forms) came to 211000 M⁻¹ s⁻¹.
